Assay [1] addresses T1, recombinant human ADAMTS5 (R&D Systems cat #2198-AD) (human, UniProt Q9UNA0 262-622, limits assumed).
T1 sequence: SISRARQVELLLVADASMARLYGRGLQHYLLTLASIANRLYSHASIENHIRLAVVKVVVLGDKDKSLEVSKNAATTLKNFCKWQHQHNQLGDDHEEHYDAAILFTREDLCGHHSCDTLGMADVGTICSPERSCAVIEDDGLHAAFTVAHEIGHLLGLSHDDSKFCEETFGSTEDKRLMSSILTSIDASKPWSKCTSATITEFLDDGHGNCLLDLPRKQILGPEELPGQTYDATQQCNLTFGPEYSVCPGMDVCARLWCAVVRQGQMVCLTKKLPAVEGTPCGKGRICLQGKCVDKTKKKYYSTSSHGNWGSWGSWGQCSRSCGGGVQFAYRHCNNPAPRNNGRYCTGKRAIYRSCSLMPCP
The assay is described as follows: cell-based or functional assay.

The target of assay [2] is T1, recombinant human ADAMTS5 (R&D Systems …). Nature of the assay: cell-based or functional assay. The source holds these as a separate data set.
Assay [3] has the same target. The assay is described as follows: binding ELISA, periplasmic extract on coated human ADAMTS5. On the procedure: In a first step, periplasmic extracts were tested for binding to recombinant human ADAMTS5 by binding ELISA. In brief, recombinant human ADAMTS5 (R&D Systems, Minneapolis, US; cat #2198-AD) at a concentration of 1 μg/ml was coated on 384-well MaxiSorp plates (Nunc, Wiesbaden, Germany). Wells were blocked with a casein solution (1%). After addition of a 10-fold dilution of the periplasmic extracts, Nanobody binding was detected using a mouse anti-Flag-HRP conjugate (Sigma, St. Louis, US) and a subsequent enzymatic reaction in the presence of the substrate esTMB (3,3′,5,5′-tetramentylbenzidine) (SDT, Brussels, Belgium). Clones showing ELISA signals higher than the sum of the average signal of the irrelevant Nanobody controls and 3 times the standard deviation of the irrelevant Nanobody controls were considered to encode positive human ADAMTS5 binding Nanobodies.

Where a chain is given by its changes, count along the chain named.

B1: Nanobody 13E02 (VHH)
VHH: EVQLVESGGGLVQAGGSLRLSCVASGSIFSIDAMGWYRQAPGKERELVASVTTGASPNYGDSVTGRFTASRDRAKNALYLQMNSLKPEDTAVYYCNLIMTIPGGSQIMYWGQGTLVTVSS
As for B1, in assay [1], the “FRET assay % inh, periplasmic extract” value was determined as 99% and the “FRET assay vi (U/min), periplasmic extract” value (shortened to “FRET assay vi (U/min)”) was 0 U/min. In addition, in assay [2], the “Human AlphaLISA % inhibition” value turned out to be 100% and the “Human AlphaLISA IC50” value came to 2.2 nM.

B2: Nanobody 2G01 (VHH)
VHH: EVQLVESGGGLVQAGGSLRLSCAASGRTTFSSYAMGWFRQAPGKERAFVATIWSGGLTVYADSAKGRFTISRDNAKNTVYLQMNSLRPEDTAVYYCAAEAVGTYYTPDGWTYWGQGTLVTVSS
notes: tagged as tested (anti-Flag detection, IMAC); also called 02G01
For the molecule B2, in assay [1], the “FRET assay % inh, periplasmic extract” value worked out at 55% and the “FRET assay vi (U/min)” value is 10 U/min. The “binding ELISA (OD 450 nm)” value in assay [3] was found to be 1.71 OD 450 nm.

B3: Nanobody 3F04 (VHH)
VHH: EVQLVESGGGSVQAGGSLRLSCVASGRYPMAWFRQAPGKEREFVAGVSWGGDRTYYADSVQGRFTVSRDYAKNTLYLQMNSLKPEDAAVYYCAGDPWGRLFRVKDNYSDWGQGTLVTVSS
notes: tagged as tested (anti-Flag detection, IMAC); also called 03F04
For the molecule B3, in assay [1], the “FRET assay % inh, periplasmic extract” value was 8% and the “FRET assay vi (U/min)” value worked out at 19 U/min. Also, the “binding ELISA (OD 450 nm)” value in assay [3] is 2.56 OD 450 nm.

B4: Nanobody 7B11 (VHH)
VHH: EVQLVESGGGLVQPGGSLRLSCAASGSIFSINVMGWYRQAPGKQRELVAAIISGGRTNYADSVKGRFTISRDNSKNTVYLQMNSLRPEDTAVYYCNAEVDAGIYAYGYWGQGTLVTVSS
notes: tagged as tested (anti-Flag detection, IMAC); also called 07B11
Regarding B4, in assay [1], the “FRET assay % inh, periplasmic extract” value is 90% and the “FRET assay vi (U/min)” value worked out at 2 U/min. Besides, in assay [2], the “Human AlphaLISA % inhibition” value stood at 100% and the “Human AlphaLISA IC50” value amounted to 3.6 nM. Further, in assay [3], the “binding ELISA (OD 450 nm)” value amounted to 0.368 OD 450 nm.

B5: Nanobody 2C10 (VHH)
VHH: EVQLVESGGGLVQAGGSLRLSCATSGFTFSPYYMGWFRQAPGKERDFVAAITRSRGTTYYLDSTEGRFTISRDNAKNTMYLQMNSLNPEDTAVYYCAAGRSPGDPSRTYLYEYWGQGTLVTVSS
notes: tagged as tested (anti-Flag detection, IMAC); also called 02C10
In the case of B5, in assay [1], the “FRET assay % inh, periplasmic extract” value worked out at 90% and the “FRET assay vi (U/min)” value stood at 2 U/min. Moreover, in assay [2], the “Human AlphaLISA % inhibition” value is 100% and the “Human AlphaLISA IC50” value is 0.45 nM. In assay [3], the “binding ELISA (OD 450 nm)” value amounted to 1.63 OD 450 nm.

B6: Nanobody 3D02 (VHH)
VHH: B5 VHH with G16A, T52S, R53W, T57I, T58L, L61T, N84D, S85N, G99S, E112D
notes: tagged as tested (anti-Flag detection, IMAC); also called 03D02
For the molecule B6, in assay [1], the “FRET assay % inh, periplasmic extract” value was 111% and the “FRET assay vi (U/min)” value was -2 U/min. For the same molecule, in assay [2], the “Human AlphaLISA % inhibition” value worked out at 100% and the “Human AlphaLISA IC50” value was 0.22 nM. For the same molecule, the “binding ELISA (OD 450 nm)” value in assay [3] amounted to 2.58 OD 450 nm.

B7: Nanobody 2A02 (VHH)
VHH: EVQLVESGGGLVQPGGSLRLSCAASRRTFSSYVMAWFRQAPGKEREFVAAISRSGDSTYYYDSLEGRFTISRDNAKNTVHLQMNSLKPEDTAVYICAASRAPSFRTIDAINYYDYWGQGTLVTVSS
notes: tagged as tested (anti-Flag detection, IMAC); also called 02A02
Take B7: in assay [1], the “FRET assay % inh, periplasmic extract” value turned out to be 91% and the “FRET assay vi (U/min)” value was determined as 2 U/min. Besides, in assay [2], the “Human AlphaLISA % inhibition” value came out at 99% and the “Human AlphaLISA IC50” value is 4.3 nM. In addition, the “binding ELISA (OD 450 nm)” value in assay [3] is 1.65 OD 450 nm.

B8: Nanobody 9D10 (VHH)
VHH: EVQLVESGGGLVQAGGSLRLSCAASGRALSSSIMGWFRQAPGKEREFVAAITWSGGRAYYADVSDFEKGRFTISRDNGKNTVNLQMKGLKPEDTAVYYCAAALAIPVTMSPHEYPYWGQGTLVTVSS
In the case of B8, in assay [1], the “FRET assay % inh, periplasmic extract” value turned out to be 111% and the “FRET assay vi (U/min)” value is -2 U/min. In assay [2], the “Human AlphaLISA % inhibition” value came to 100% and the “Human AlphaLISA IC50” value turned out to be 0.97 nM.

B9: Nanobody 3B03 (VHH)
VHH: EVQLVESGGDLVQPGGSLRLSCAASGSDVVVNDMGWYRQAPGKQRELVADITTGGRTNYADSVKGRFTISRDNVKNTVYLQMNSLKPEDTAVYYCNAQVGDSDDDVWYAYWGQGTLVTVSS
notes: tagged as tested (anti-Flag detection, IMAC); also called 03B03
B9: in assay [1], the “FRET assay % inh, periplasmic extract” value was determined as 93% and the “FRET assay vi (U/min)” value stood at 2 U/min. Moreover, in assay [2], the “Human AlphaLISA % inhibition” value stood at 100% and the “Human AlphaLISA IC50” value is 12 nM. The “binding ELISA (OD 450 nm)” value in assay [3] was determined as 2.29 OD 450 nm.

B10: Nanobody 2D12 (VHH)
VHH: EVQLVESGGGLVQAGDSLRLSCAASGRTFSTYFVGWFRQAPGKERDFVAAISRNGARTYYYDSVAGLFTISRDNAKNTVYLQMSSLKPEDTAVYYCAAARISPSDPSNEDGYDYWGQGTLVTVSS
notes: tagged as tested (anti-Flag detection, IMAC); also called 02D12
Take B10: in assay [1], the “FRET assay % inh, periplasmic extract” value came out at 90% and the “FRET assay vi (U/min)” value worked out at 2 U/min. Besides, in assay [2], the “Human AlphaLISA % inhibition” value came out at 100% and the “Human AlphaLISA IC50” value came out at 0.69 nM. Besides, the “binding ELISA (OD 450 nm)” value in assay [3] was determined as 1.35 OD 450 nm.

B11: Nanobody 9D09 (VHH)
VHH: EVQLVESGGGLVQAGGSLRLSCAASGLTFSSYTMGWFRQAPGQEREFVSAISWNTFTTYYVDSVKDRFTVSRDNAKNTLYLRMNSLKPEDTAVYYCAAAGGSPRQHEPYEYRVWGQGTLVTVSS
Turning to B11, in assay [1], the “FRET assay % inh, periplasmic extract” value was 102% and the “FRET assay vi (U/min)” value amounted to 0 U/min. In addition, in assay [2], the “Human AlphaLISA % inhibition” value was found to be 100% and the “Human AlphaLISA IC50” value was determined as 2.6 nM.

B12: Nanobody 9A05 (VHH)
VHH: EVQLVESGGGFVQAGGSLRLSCAASRRTISSGTMGWFRQAPGKEREFVAAIRWSSGITFYPDSVEGRFTISGDNAKNTVSLQMNSLKPEDTAVYYCAADRSALRDPSFEVNYEYWGRGTLVTVSS
On to B12, for which, in assay [1], the “FRET assay % inh, periplasmic extract” value came out at 113% and the “FRET assay vi (U/min)” value is -3 U/min. In assay [2], the “Human AlphaLISA % inhibition” value stood at 100% and the “Human AlphaLISA IC50” value was found to be 0.32 nM.
